{"source": "patent US20160272937A1", "about": "“METHODS OF GENERATING INTERMEDIATE MESODERM CELLS FROM HUMAN PLURIPOTENT STEM CELLS” (THE BRIGHAM AND WOMEN'S HOSPITAL, INC., priority 2013, published 2016)", "molecules": {"B1": {"name": "activin A: human activin A (R&D systems) (protein, UniProt P08476 311-426, looked up)", "Inhibin beta A chain": "GLECDGKVNICCKKQFFVSFKDIGWNDWIIAPSGYHANYCEGECPSHIAGTSGSSLSFHSTVINHYRMRGHSPFANLKSCCVPTKLRPMSMLYYDDGQNIIKKDIQNMIVEECGCS", "modifications": "Inhibin beta A chain"}}, "assay_type_in_all_cases": "cell-based, human", "key": {"[1]": {"test_system": "hPSC-derived PAX2+LHX1+ cells", "experiment": "SIX2 induction in PAX2+LHX1+ cells (cap mesenchyme differentiation, immunofluorescence)", "conditions": "activin A 10 ng/ml added on day 3, 5 additional days"}, "[2]": {"test_system": "CHIR-induced hPSCs", "experiment": "Growth factor screen for PAX2 induction in CHIR-induced mesendodermal cells (immunostaining)", "conditions": "CHIR 24 hours then increasing doses of factor, day 4", "procedure": "For immunofluorescence studies, cultures are washed once with PBS (Invitrogen) and fixed in 4% paraformaldehyde for 15 min at room temperature (RT). Fixed cells are then washed three times in PBS and incubated in blocking buffer (0.3% Triton X-100 (Fisher Scientific) and 5% normal donkey serum (EMD Millipore) in PBS) for 1 hour at RT.\nThe cells are then incubated with primary antibody overnight at 4° C. or for 2 hours at RT in antibody dilution buffer (0.3% Triton X-100 and 1% BSA (Roche) in PBS). Cells are then washed three times in PBS and incubated with Alexa Fluor 488-, 555-, or 647-conjugated secondary antibodies (1:500) (Molecular Probes) in antibody dilution buffer for 1 hour at RT. For immunostaining with Biotinylated Lotus Tetragonolobus Lectin (LTL, Vector Labs), a Streptavidin/Biotin Blocking Kit (Vector Labs) and Alexa Fluor 488- or 647-conjugated Streptavidin (Molecular Probes) were used according to manufacturer's instructions.\nNuclei can be counterstained with DAPI (Sigma). […] Immunofluorescence is visualized using an inverted fluorescence microscope (Nikon Eclipse Ti, Tokyo, Japan). Quantification is performed by counting a minimum of five random fields at 10× magnification.\nPAX2 is selected since it is an early marker of IM, and, unlike the markers OSR1 or LHX1 which are also expressed in the adjacent lateral plate mesoderm, PAX2 expression is restricted in mesoderm to the IM."}, "[3]": {"test_system": "CHIR-induced hPSCs", "experiment": "Definitive endoderm differentiation of CHIR-induced hPSCs (SOX17/FOXA2 immunostaining)", "procedure": "Mesendoderm differentiation—the media is changed to Advanced RPMI (A-RPMI, Invitrogen) supplemented with 1×L-glutamax and 1× penicillin/streptomycin and either CHIR99021 (CHIR, Stemgent), human Wnt3a (R&D systems), and/or human activin A (R&D systems) at the doses described. […] Hepatic differentiation—cells at the definitive endoderm stage are treated with A-RPMI+1×L-glu+1×P/S+1×B27 supplement (Invitrogen)+20 ng/mL BMP-4 (R&D systems)+10 ng/mL FGF2 (Invitrogen) for 5 days, then A-RPMI+1×L-glu+1×P/S+1×B27+10 ng/mL HGF for 5 days, then HCM Hepatocyte Culture Medium (Lonza) supplemented with 20 ng/mL Oncostatin M and 10 ng/mL HGF (Peprotech) for 5 days. Pancreatic differentiation—cells at the definitive endoderm stage are treated with DMEM/F12+2% FBS (Hyclone)+50 ng/mL FGF7 (R&D systems) for 2 days, then high-glucose DMEM (Mediatech)+1% B27+2 μM retinoic acid (Sigma)+0.25 μM KAAD cyclopamine (EMD Millipore)+100 ng/mL recombinant human Noggin (R&D systems) for 4 days, then high-glucose DMEM+1% B27+100 ng/mL Noggin+300 nM indolactam V (Stemgent)+1 μM ALK5 inhibitor II (Axxora) for 4 days. […]\nNuclei can be counterstained with DAPI (Sigma). […] Immunofluorescence is visualized using an inverted fluorescence microscope (Nikon Eclipse Ti, Tokyo, Japan). Quantification is performed by counting a minimum of five random fields at 10× magnification. […]"}}}
{"molecule": "B1", "values": [{"measurement": "SIX2+ cells by immunofluorescence", "setting": "[1]", "result": "small populations of SIX2+ cells"}, {"measurement": "PAX2 expression", "setting": "[2]", "result": "no PAX2 expression"}, {"measurement": "number of SOX17+ cells", "setting": "[3]; activin A added after 48 hours of CHIR treatment, 4 days of differentiation", "result": "markedly reduced"}, {"measurement": "efficiency of SOX17+FOXA2+ definitive endoderm generation", "setting": "[3]; high doses of activin A after 24 hours of CHIR treatment, 2-3 days of subsequent differentiation", "result": "greater than 95%"}]}
